Test results published in publication PMC4631608 (Journal of structural and functional genomics, 2015).

Molecular target: the molecule itself
Experiment: SEC

B1: M. tuberculosis Rv1496 (natural protein)
chain: MMAASHDDDTVDGLATAVRGGDRAALPRAITLVESTRPDHREQAQQLLLRLLPDSGNAHRVGITGVPGVGKSTAIEALGMHLIERGHRVAVLAVDPSSTRTGGSILGDKTRMARLAVHPNAYIRPSPTSGTLGGVTRATRETVVLLEAAGFDVILIETVGVGQSEVAVANMVDTFVLLTLARTGDQLQGIKKGVLELADIVVVNKADGEHHKEARLAARELSAAIRLIYPREALWRPPVLTMSAVEGRGLAELWDTVERHRQVLTGAGEFDARRRDQQVDWTWQLVRDAVLDRVWSNPTVRKVRSELERRVRAGELTPALAAQQILEIANLTDR
  stoichiometry N: 2
